Data published in PMC11040352, “CD38‐Specific Gallium‐68 Labeled Peptide Radiotracer Enables Pharmacodynamic Monitoring in Multiple Myeloma with PET” (Advanced Science, 2024).
Starred links: 1 amine or outer side, 2 acyl side, 3 side chain; linkers in the order of their positions; H or OH if unused. Positions of bridges follow the written chain, without caps; N, C: chain ends. Primed or numbered codes have the meaning given here. *: point of attachment. NOTA = O=C(O)CN1CCN(CC(=O)O)CCN(CC(=O)*)CC1; TBMB = c1c(C[*:1])cc(C[*:3])cc1C[*:2]; PEG3′ = not defined here

Molecular target: His-Tagged human CD38 (recombinant) (human) (UniProt P28907)
Experiment: SPR; Biacore T200, CM5 chip, 25 °C; His-tagged CD38 captured by immobilised anti-His antibody (human about 860 RU, mouse 1360 RU); AJ206 as analyte, 300 × 10^-9 M down to 1.2 × 10^-9 M; PBS-P + 1% DMSO, pH 7.4; 50 µL/min; contact 120 s, dissociation 360 s

B1: AJ206 (peptide)
peptide: {NOTA-PEG3′}-ACVPCADFPIWYC-NH2
modifications: linker 2-5-13 via TBMB
**Q.** With B1 as the binder, how does the Kd read?
**A.** 19.1 nM
